Reference: the DeepSol protein solubility set

assay: soluble on expression in E. coli; label from the status in PepcDB or PDB records

Soluble on expression in E. coli, not soluble:
MGSDKIHHHHHHAQKKTQKTYIPWSNGKLVVSEEGRYLKHENGTPFFWLGETGWLLPERLNRDEAEYYLEQCKRRGYNVIQVQTLNNVPSMNIYGQYSMTDGYNFKNINQKGVYGYWDHMDYIIRTAAKKGLYIGMVCIWGSPVSHGEMNVDQAKAYGKFLAERYKDEPNIIWFIGGDIRGDVKTAEWEALATSIKAIDKNHLMTFHPRGRTTSATWFNNAPWLDFNMFQSGHRRYGQRFGDGDYPIEENTEEDNWRFVERSMAMKPMKPVIDGEPIYEEIPHGLHDENELLWKDYDVRRYAYWSVFAGSFGHTYGHNSIMQFIKPGVGGAYGAKKPWYDALNDPGYNQMKYLKNLMLTFPFFERVPDQSVIAGQNGERYDRAIATRGNDYLMVYNYTGRPMEVDFSKISGAKKNAWWYTTKDGKLEYIGEFDNGVHKFQHDSGYSSGNDHVLIVVDSSKDYVKKDCYQIDTHE, MGSDKIHHHHHHAQNFSDYFTNKTLRIDYLFTGNADKQSICLDELSELPVWAGRRHHLSELPLEGNGQIVMRDVASGKVIYTTSFSSLFQEWLETDEAKEVTKGFENTYLLPYPIKPAEVEITLRNNKREVSANLKHVVKPDDILIHKKGLTHITPHKYLLKSGNEEQCIDVAILAEGYTTSEMETFYKDAAIACEALFSHEPFQSMKNRFNIVAVASPSADSGVSAPKQGAWKHTAFGSHFDTFYSDRYLTTSRVKAINDALAGIPYEHIIILANTEQYGGGGIYNAFTLTTAHHPNFRPVVVHEFGHSFGGLADEYFYDEDVMNGLYPLNIEPWEQNITTRINFASKWEDMLTKTTPVPTPVADKAKYPIGVYEGGGYSAKGIYRPAFDCRMRTNEYPTFCPVCQRAIQRIIEFYTGK, MGSDKIHHHHHHCEDIFNDLAVNPNQSDVNSFYTTLENCNKGILGIYGYISTPRNLGACGFGLMLTRSDEGCSVADYGVPGAYNEEFTPSYYSLVQPFQLMYTAASQANQMIESLTEIEFSNKELQDAYLGEAYFLRAFTHFFLFINYRNIPLIKELPKAPNEYKPQATPEEAWDFIIDDLIKAKDLLPDKNFWDAKNKGRVTKASAYALLGKSYLYRSGIEPKYGTSQTTYYNEAAAAFAEIINGNCGNYRLVDDYSWNFDVAHENNDESIFEVQFVGVLNTGFNPGFVDSGLFNDVRCKMCIMNRSRNSNSSAQVMHNWLYDKFVASKTVTGETDPRMFGSFVFNDNVSEIIRPKGMKVTFLEGKDWEAEMGSKEGTFGEQYELAMGYKMCSRKWLDWTLPPTDDAGGHFFNGRAQGVNWRMIRYSDVLLMYAEAVVMGGKATANITPLEAINKVRDRVGVPHVTEANMRTIEDERILELTYEGFRFFDLLRWGKVVERFRELENTDPLFKRFSRAQYMGFKENKNEWVPLPIDEVEGNPYITKNNPGW, MGSDKIHHHHHHCKDNDDATGDFDPNKPVVISEFSPKEGGLGTRMLLYGENFGSDISKIKVTIGGQDSKVVGAKGKSLYCVVPAKAYDGDIKLSILNDEGEEIANTEANEKFVYQKKMLVTTFLGTMYDGNTKYDLKDGPFDDCGGFGGAVWLSFDPKNHNHLYLVGEQHPTRLIDFEKEYVSTVYSGLSKVRTICWTHEADSMIITNDQNNNDRPNNYILTRESGFKVITELTKGQNCNGAETHPINGELYFNSWNAGQVFRYDFTTQETTPLFTIQDSGWEFHIQFHPSGNYAYIVVVNQHYILRSDYDWKTKRLTTPYIVCGQQGAKDWVDGVGKKARMHAPRQGTFVKNPAYKGSSDEYDFYFCDRENHCIRILTPQGRVTTFAGRGSNGTSGYNDGDLRQEARFNHPEGIVYDEERECFFIGDRENRRIRKIGYEE, MGSDKIHHHHHHCSEKTTTEIPETELKNISCSTQLVTHSSAQTRGAAPTTLNENDFVLYAFKKNGEGNFSYEEAKHETSVIDGGVWKYNAAFPVGTYKFIAFYNLDEKNQAALNTTITGISNQTWENILKSIVITHFPSATGQYHEDMNEIFCGKTTDEIDISSGIGGDDNEIKIKLTLERIVSRIDIKFIKVASDDDHIEVPYATGNIFGGTGTTSLTSLIFTSSNVPLKYNLNGENPDYVTGVQCQVTYAAPSFQYGEANADAVKALDYQPFPQNADAINNNMETNIKKGIAKGGAYFMGSYLLPFPSSSQTLNANIQLNKANQERTIKVPGFAVTSNYVSIITVRLKSSTDAGDNNNGNDDEHLFNPKSTFIVEIEKTYVGIHNTNVDVE, MGSDKIHHHHHHDQEPPLYVNENDIFTSPTRIEATLNGLYAAIKNTGTKSLMGGKSYLVFDNRGDDVINISNNLVTLFNTYNMNVGITDAENADTWTYAYLAINKVNTFLQSLEGAREVAGENYDRYVQEAKFVRALAYYYLNNLYPTPYSVNPDAKSVPLRLTAEAGTENNNMPRSTVKQIYEHILSDLENISALDTEVNTYTGVTHATQAAANMLKMRVYMAMNEWDKAITAGELVTGYSLPEDVTLIYKAPYFSQESIFSLPMADTNIPNTQQSLAEYYYDGKIMLIDTKSGIMSKPDYSLATDKRIIAFKGEKDLLMKFTDAKTKLQWVPIFRYAETLLDLAECYANKAGGEATAKSLLKQVRGRSVDAATDPLNIDNLSGDALKEAIYNEKRLEFIGEGIRGIDIMRRGEHFIKVGENETINVGPSDEKYTWPIPQVELLLNKDINK, MGSDKIHHHHHHDTEKKVSEEGFVFTTVKENPITSVKNQNRAGTCWCYSSYSFLESELLRMGKGEYDLSEMFTVYNTYLDRADAAVRTHGDVSFSQGGSFYDALYGMETFGLVPEEEMRPGMMYADTLSNHTELSALTDAMVAAIAKGKLRKLQSDENNAMLWKKAVAAVHQIYLGVPPEKFTYKGKEYTPKSFFESTGLKASDYVSLTSYTHHPFYTQFPLEIQDNWRHGMSYNLPLDEFMEVFDNAINTGYTIAWGSDVSESGFTRDGVAVMPDDEKVQELSGSDMAHWLKLKPEEKKLNTKPQPQKWCTQAERQLAYDNYETTDDHGMQIYGIAKDQEGNEYYMVKNSWGTNSKYNGIWYASKAFVRYKTMNIVVHKDALPKAIKAKLGIK, MGSDKIHHHHHHEEGTSPINENTSNLPVSATADAQLKFAKLLSQAASGSIEVRNFLKKEALVQFDNDYDIFYPLIKDKKVFGNQSFRDILLSYCKEENELSQIEQSLPLLNIMVPDLTLFWDFNATTWDTSDKEISVLCRDDKNNTLYENGENIGNMTNGDIPGFPCLVVKNNERMKITSVNTRSGEATYEFISDAFDGSKKVQTRHYDADNDLEATEDLNKYVSKDVVATAINAWREFKNVPNACQRDYIYYGINKTNTPGSLNRNIREKLYRFRISATAFGRIADADGDQRLQDLTQTKRYLSNEEILQNIWTDGNFEFRFKSYIAGETNKDAMEHLLTFSVKAKDVFSIEKIHLHHKNGTAFRQSKNFYSVDINNLRSKWIYPEKLEPNKDNQVFTLPWDLYNKALSIHMYVEEFDVDQTIEKTITVVNEFTNKADFSIEGGGSIDSVKLSAKLGYGFSHTNTTTSSTKVTTTVGSDELGTLSFFFYDPIIRAESNNTYKLYDVSSGDVTATILPINLIITR, MGSDKIHHHHHHEILKVLRKNNDFQNWEEIKNRLHPIIIKHVEGEPVYQFFDTLNDNSFEKNGQLISLSTQPINSFVPYHIHNYVEMMVVLSGSCVIKTANEAITLNENEIIIIGCKTIHKVEPIDDKTIMIKIALKRAAFSLEDLVFLTHSHNAQSVSSIVFSLLSSDDSHGAFNVFRTHHDVHVVNKIYNIISEYYCPDDYSNQIIKLEILELFIRLIRIASKDAVFQTQKEVQNNNEIDLLTLLLYIERNYKTINLKSMAKYFNFNPNYLSSILREKTGYTFIKLVHLQRINVAAEYLALTNTPVEGISLAVGYENPSYFYKMFKKYMGCSPKEYRQKQIAG, MGSDKIHHHHHHEITDGVVRIGVLNDQTGVYAGLAGPGSVWAAKKAVQDFAPEKHGLKVEIVAADHQNKPDVGASIARRWFDVDKVDAIVDVPTSSVVLAVNQVAKEKNKVMIVTGGGTSDLTGKACTPNAIHWAYDTWALANGTGKAVVKSGGKSWFFVTADYAFGHSLERDTEAVVVKNGGKVLGKVRHPFPGNDFSSYLLQAQASKAQVVGLANAGGDTIGAVKQAAEFGVTAGGQKLAGLLVFSSDVQALGLKAAQGLLLSETWYWDMTDENRKFGKEFAAANNGKFPTMAQAGTYSAVIHYLKAVAAMKADGDGAAVVAKMKAMPTDDKLFGKGSIREDGRKIHPLYLFEVKKPSESKYAGDFYKLIATIPATEAFRPMEEGGCPLIGKKAS
